# B1: Inner nuclear membrane protein HEH2 (Saccharomyces cerevisiae), Q03281 (parent)
# chain: MDHRNLDPKTLKVSQLRRVLVENDVAFPANARKPVLVKLFEEKVRQRLQSSPEASKVRTSIQKVVKSGAKNADRKKTLKSKKLESSSSESKTVKDENVETNKRKREQISTDNEAKMQIQEEKSPKKKRKKRSSKANKPPESPPQSKSDGKATSADLTSELETVEELHKKDSSDDKPRVKELPKPELPNLKVSNEFLAQLNKELASAATENYDHSIKSTDLSSIRIETEEPVGPSTGAETRNESEVMENINLEVQPEVKEAKEELTKISETFDNQDEEDTSRLSSKKNIRSPKGRTRHFIANKTKRGIDIMKPFIAHLFIWLWNGAIFLSIICPILFGLWYREQRIQVGYCGHEKPLKSLAISAFPQTERVDSVLQAYRPNCLECPEHGICSSFMNVECEPGYEPKSSILETYGIIPFPKYCAKDESKEKEVDELVWKVNEYLKKKNAQHECGEGENLFESGETETKLYDIFSHSRPSWESQREFNDHWKNVLEILKKKDDIIWLPLDFETNGKREKSKSNNTNYIYRSTSKKWVTLQCHLEGDIQEYITKYGGSLFITLGVLFLIKKIQSTLDNYVQGEQIIEKLVKEAIDKLKDVKKNKGEEPFLTTVQLRATLLSDIPNIKEQNNLWAQTKEKIMKEQSENIELYLLEENGEIMTCWEWKE
# B2: Inner nuclear membrane protein SRC1 (Saccharomyces cerevisiae), Q03707 (parent)
# chain: MNSDLEYLEDGFDPNSMKVATLRRILVENNVDFPSNARKNALVGLFDEKVKPQIPQLRKMYLNVRPSDEGIVKMDRPSSSPSIASPRRSRRARREKSASPMAKQFKKNRILDDVSNDDDDDDDDDDDNDKKDDPLIVPSGTDTDEVDDEEDDVITSSSNKSDTNDFQQNSDTRKKRKDPDSDDWSESNSKENKIDNKHLNLLSSDSEIEQDYQKAKKRKTSDLNQEHGNGSAILGKLSVKTPIKNTNRKPVSMDNFNDSLTSSGTENDPFVPNIRHNPKELGTANGTGHSTPLSKLKVSASFADKLPQKEVPSTILVPEVEQQEPSQSERTPSLFSSEGSGSESEAPLLPEITTPGPHQPMGNTSNNVVEMIDTDSSNLVSDEDEVLVPTRIETPQLPTEKDVEKCEARVQELQEEVNEQLEHENGSEFDVKQGSGKVGNRHKFKRALKFLSKSLLALFLFCIFIVIPLLFGLWYREQRLLIGYCGHEVPSHRVSGNSFEFIQKLDNLLQDYRPKCIPCPPNGICYPYLKLKCKPDYKLAPSRLDFLEIIPAQGKCVKDDKKQQLVSEVVEKSLEFLRAKNAQISCGDGKDDIESGMTEDALYQIFNEARAPWIRDDEFEDLWIQVIKDLTEEPEILWRQLSPTDNNIGGNSNNIIKTNDVPRQKRHLPEKFISKTRNFRSTSKKYIGMKCRFEREIYQTYKKFQRPIWLMFLLIVISKVIEIKLKNYYRKKARIEELVTQTMEKLKFQKIKSMSDPKENAYLSIVQLRDIFLSDIVDLKYKNQLWSEVVKYLEHNNSNIKSNLTEIRGEIMKCWEWIGPMELNEPKDSAENKI
# Variants of: B1
# Details: with ima1_yeast SRP1, Q02821
# ima1_yeast SRP1, Q02821, sequence (Q02821 whole entry): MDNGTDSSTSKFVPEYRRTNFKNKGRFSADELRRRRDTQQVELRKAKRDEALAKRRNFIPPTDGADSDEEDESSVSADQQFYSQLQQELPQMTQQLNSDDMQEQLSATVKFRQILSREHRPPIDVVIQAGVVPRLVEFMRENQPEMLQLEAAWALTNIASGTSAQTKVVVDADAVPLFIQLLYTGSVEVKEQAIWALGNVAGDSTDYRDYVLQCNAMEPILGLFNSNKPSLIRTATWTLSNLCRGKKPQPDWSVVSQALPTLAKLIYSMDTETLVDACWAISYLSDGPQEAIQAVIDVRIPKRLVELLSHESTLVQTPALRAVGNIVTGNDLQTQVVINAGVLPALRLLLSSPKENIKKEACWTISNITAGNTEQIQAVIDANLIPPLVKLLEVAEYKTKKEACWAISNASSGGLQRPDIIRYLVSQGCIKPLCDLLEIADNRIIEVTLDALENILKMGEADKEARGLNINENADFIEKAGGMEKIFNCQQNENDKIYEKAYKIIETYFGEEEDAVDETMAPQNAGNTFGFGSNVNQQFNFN
row,Variant,effect of a mutation on the interaction
1,R103A,decreasing interaction strength
2,K126A,decreasing interaction strength
3,R103A;K126A,decreasing interaction strength

# Variants of: B2
# Details: with ima1_yeast SRP1, Q02821
row,Variant,effect of a mutation on the interaction
1,R176A;K190A,decreasing interaction strength
2,R176A,decreasing interaction strength

# Variants of: B2
# Details: with ima1_yeast SRP1, Q02821
# Remark: another data set of the same source
row,Variant,effect of a mutation on the interaction
1,K190A,decreasing interaction strength
